Reference: the domain aggregation screens of Martell et al. (2025)

Assay: soluble fraction after stress (log2 fold change); higher = more stays soluble; pooled small domains, quantitative proteomics
Details: stress: 50 degC
Procedure, shortened: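 The stress applied to every library was 50°C. These custom libraries of small protein domains were pooled and measured at high throughput with quantitative proteomics as the read-out. Aggregation propensity is expressed as the base-two logarithm of the fold change in how much of each protein remains soluble. The higher the value, the more of that protein stays in solution.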

Sequence | soluble fraction (log2)
HMGRYDWIEQIDDPVLAERLKHLTEDDLELLTRYVFEDATQKELASQYGIGQQSVSKRLKKLKSFLTK | 0.00228
HMAARLMRALIPYAQGGLLAKLHEDGQVLSEEYTGEGIEVKALADEQLFGRLTVQLGEQAVSWQD | 0.16
HMRISKRQLILESAAAIINEKGADYLTLDAVAQRAGISKGGLFYHFKSKDELIKELVNYANN | -0.14
HMNQRQKQLLSILEQQGDWMKGKALATLLAVSDRTIRSDIEKINREVEGSILSHPHKGYLLSVENRQIAET | 0.256
HMFIMQTVALGSEGPDVRALQSILNRIGYNAGTVDGIFGSRTRQAVIAFQRNNGLAADGVAGPATWG | 0.122
HMSVPSLVGKTDSEAQSAIKSAGLKVGTVTYQYSDETEKGYVVSQSPYSGNKVNAGSTVNIVVSKGK | -0.0367
HMVVNERIKKLRRSLDLTQQEFADRIGVKRNTIANYEIGRNEPIDSVLELIVREFGVSKQWLLDGTGEMF | -0.55
HMNDTLQEYFEALERLKSNNPINVPKNTKINNDSVALEAGRKRGSIKKSREIFAELIEAINNAS | -0.0859
HMVQQTEEDVIRDMYVEGKIFTIGEEVTDTYTGVTGKIIRRGTNYVTFMSEDGETYKKWLYEIELA | -1
HMSLAVFLQGLLEEKQLKKADVIRRTGMEPTYGYHIFDGHKKHPARSKVLLLALAMGLTVKEAQHLLYYAG | -0.116
HMQMSPREKMIYSFIESHPGTKSGEIAEKLNVPLPTVKRILSEMVSGNFIAKHGSGIGTNYSTEK | 0.233
HMRKKDGEAYVLPRPLKKGDSVLIYDIDKKGTVLQPPEKGGKTALIQAGIIQTRVPVSNLRLLE | 0.383
HMIFEETVFKDIAFGPKNMGLSEAEIKRRVYETAENIGLSQELMERSPFELSGGQKRRVAIAGVMAMEP | 0.192
HMQLFKFKNAMMELAKNKNITLDTAEKAIGLEAGFTELVARGVKELALSDVIKISKYFNTTMDSVLD | -0.903
HMAGASQAVKAQLRLREMILAGELPGGARIAELTLVEKLGVSRTPIRAALMRLEQEGLLHRLPGGGYAVRT | -0.52
HMFHDPTMEETLINLKGITNEVLSLLSSSKIKKLEDLAEMSVPELRDIVENISDEEASALIMEARKPWF | -0.446
HMGNIITQEAAVKLAQDRVPNATLVKIEYDFDDGRPVYEGELREGRWEYEFEIDAATGEFLKWEKD | 0.04
HMVVEGMQFDRGYLSQYMVTDNEKMVADLENPYILITDKKISNIQEILPLLESILQSSRPLLIIADD | -0.214
HMPRYSGMFAAWLHKALARMGKSMSDSARSAFTERVELDYSSANNELQKLSLLVGDRKVITEADVMRAIG | -0.292
HMKERLLDPYKDFIVNYLQKYPYTPAAVMHDKLKESYPDFPKVDPKTIYNFVMLLRRDFNIPKV | -0.306
HMGNYEEAILAFEAAIKIDPKNADAYRKLAEAYEKTGDEDAALRTLETGAEATGDRELADLAEKKRQELDA | 0.169
HMEFLLAIQPFVLLTDHANLTFLREQTDSMMKRIQINISGFEIEFRYVPGLTNILPDKMSRV | -0.0431
HMYNNGYVNSDRVNFRKGASTNSDIYKVLDKNTSVTILDYEGDWSKVKINDTVGYVYTKYITAG | 0.134
HMLWTDTKYVTVPDFVGKEPKEIESSYLYNIEYHGEGTKVISQQPAAFSRTIEGGTVRLYLG | 0.0884
HMSSIHQDAKQQLHEYIRTYIQPLMRAGKQVTVWDIIGHVTIRKPKLVQKIGTQQLINMVQDLLE | -0.213
HMSFDNIKVGYISETAGYVKGISLADANEYAKLNPDTEFIFIDGDEKVRFLTINEVNGLTPKNLLRSDP | -0.23
HMKITIDSVERDETFRLIWGTGWKPKNKIQELAAIQAKKNGLGRMNEVAGLAAWRGIWQQVAEQVAQEVL | -1.04
HMNDVLVGAIPESASGSRLDKVMPSVFPPYSRSQLQVWLKQGRILMGNGIPSPRLIVSGGEVLSLVVPELP | -0.971

Sequence | soluble fraction (log2)
HMKRITGHLTEKNKKWYAVINLYDTDGKRKEKWQGLNLDANKGNKREAEHRLRQILDQYNTD | -0.0127
HMAPLRTQYVNVNYANAAEIKTLISGADKEVGSLLSERGSVVVDKRTNTLIIQDTQARLNDIGDLIEQLD | -0.0505
HMDPNAITSAQVTKLQVLANEKGFAERQARLTMWAEVIGRNVGTANELTKAEAHKLIEHMDALPV | -0.488
HMLADIGGRIADLRREVGLTQGELAEKADISVVHLSNIELGKKTPGLSTLIRIAEALDVATDWILQA | -1.02
HMDDDAELLLKKLSAAGGELPFHDRSEPAEIEAAFGLSKSAFKRALGKLLKAGKVVKTQQGIQLK | 0.0395
HMSIESMVGRFGVVTKDVVANEMAGKVKVGREEFRATADIAVSSGTKVKVTHAEGITLTVVPE | 0.378
HMQDFEQNLFDGKSIYDRMLSKFSLHNVDVKQLVAHFKRKDTEQFFADIGRGLITSAQMLGFLQT | -0.289
HMLTYPEHVRLRMIELRKTRSLSQSEFGTYLGLSYQTISSLELGRHEWSLAHIQTALLRFELPPNYF | -4.92
HMSRGTRIDPNWQPSPEDRALARAEGFSDPEIDREALQFRDYWLGASGSNAVKLDWSATWRNWVRRAATNF | 0.0774
HMENEDMTGDIRVIDYIRNVAEYIQTTKGQASASQMLDRFLFPPELQYTPLDKLSGGEQRRLYLLKVLMEA | 0.0342
HMEALPSNLRRLRLEAQLTLDRLGALSGVSRAMISKIERGASVPTATMLGKLAAALQVSLSQLL | -0.97
HMLPITPGQKYKFVVKSAEEAAAIIRDKLGEMAQVISVRQVEGEGLARFLKSPKLEIIAQVPVA | -0.132
HMNLAPLLTEYVQINFRRASEMKTYLEQANLISERGFLLADDQTNILMVRETGASIEEIRRTLNRF | -1.77
HMPLTAASLQTYLRGVDYPASKQDLIAHARKSDAPEDAITVLEQYSEQTYRSAADVSAEFGS | 0.178
HMNIVINVDTPTFEQMKATYQAPGTLPAGASFHAKLKGVTVTGYTKSHKVMFQGALANQEAARWQ | -0.92
HMDRSAQVLFLEHARSRLPQRIQWAEELAELLSIGIDSAYRRIRGETALTFNEAVSVSRKYDISLDYLFK | -3.62
HMARPLLSPREQDVLALIARGFSYSEVARLQAVTVHTIRTHIRNLYAKLSVHSKTEAVFEATRMGLLP | -1.63
HMTAVVPNFKGKLISELSNFVADKNVRYTIIDSIYDPEEKSGIVIKQDPEEKTQVKHNRIIYLYVTST | -1.53
HMALDSQEVGYNIEARGARPVVAQLGKAGQFSAVENSIRLGDDNWIALAPKLAGGGNAGFTAGIKSALS | 0.0371
HMGPDTVDRTRRFKWVDNEVVVNFGKNAGRTLRDLAENDPGFLRWIVRSDFSDEVRTIANDALMGKFPTRK | 0.00109
HMTRRVIRAPAAGIMRSNVKLGDLVKEGDVIAWIGEHEIKAPLTGMVRGLLNDGLAVVGGFKIGDI | -0.175
HMTRIHEEVVNQVHDLVKEGRFKAGDQLPSERELAEIFKVSRTSVREALRALETQGLIISRTGMGNFIAD | -0.0448
HMQISDSGELEKIVLQVIEENPKPAEQVRSGNEKAIGALVGGVMKATQGRADGGEVNRLLRQHLGL | 0.172
HMDTMINLIGLNLKKAKKELSNLGVNVKKVRYKKSSVYDEGVVIDQSIEAGRNIKNGDFITITVSSGKA | 0.428
HMNMDLGHSISKLRTDANLTQEKFAQILNVSRQTVQKWEYGEALPDIHNIIKIAKFFNISLDALVLRS | -0.159
HMVGADTISDLISQRGRMIGDKPITNAVIKSGSEFSTINALSKAIASGDARTNDVEGMKPVFR | -0.0638
HMNGVPDMSPVPEGARNSTLHAWAFGRLKNHPDNETGIREDLFRRGHASGLQDAELDQIWKSIKRTL | 0.0847
